The data set in a line: label from the status in PepcDB records.

Consider “MSILQGILDTYAQFFDLDMWIKVLQDPVSWGLIGTLVVLEGLLSADNALVLAVMVKHLPEEKRKKALFYGLIGAYVFRFIAIGIGMFLIKLAWVKVLGALYLAWLSVKYFIDKRKGNAEEEEAHGMNQNSILFRMFGVFWGTVAMVELMDIAFSVDSVLAAFGVSNEVWILLLGGMLGILMMRGIAGVFLKLLERIPELETTAYILILIIAAKMLLSVIHIEISHTVFFIILVVAFGATFILHYMKNSGQAKEEVAATKEDNK”, for which the protein production result is listed as “failed”.

As for “MSINSNSVFNNSGRVSAAGIASVVGLAVLSAVAVTGGAVKVLVISWVAFAAMALGAWLGARADETNPYRLVWGYGLASGAMVTSAAMFLVPQAMGLGGQAGAARIGGVGIAAGLVTGYGTHTIGHRLTHIETSFDMTTIAIAAHALSAGLVIGLVYASMPDLGILLGLAIVSHKGPAGYAAARRLGRSDKSATALLLPAAGVGLTAIPSALLPVPESALLNAVIFGFAAGIFLHVAMDFLPNCEAGSEIDEVCELHDHSHDLLDELRTHAVGSTVVGAAVIVLAWVAI”, the protein production entry was “failed”.

On to “MSIPKEQYNFNKLQKRLRRNVGQAIADFNMIEDGDKIMVCLSGGKDSYTLLSILMNLQKSAPIQFSLIAVNLDQKQPGFPEHILPEYLEQLGVEYKIVEENTYGIVKEIIPEGKTTCSLCSRLRRGILYRTATEVGATKIALGHHRDDILETLFLNMFYGGKLKGMPPKLMSDDGKHIVIRPLAYAREKDIERFAQAKNFPIIPCNLCGSQPNLQRQVIKEMLRDWDKRYPGRIETMFRATQNIVPSHLCDTQLFDFANIKQGDEIINGGDLAFDKDDIPTSPILSDDEDERPDFSQARLDVVEVK”, for which the protein production entry is “not failed”.

Take “MSIRSLGYLRIEATDMAAWREYGLKVLGMVEGKGAPEGALYLRMDDFPARLVVVPGEHDRLLEAGWECANAEGLQEIRNRLDLEGTPYKEATAAELADRRVDEMIRFADPSGNCLEVFHGTALEHRRVVSPYGHRFVTGEQGMGHVVLSTRDDAEALHFYRDVLGFRLRDSMRLPPQMVGRPADGPPAWLRFFGCNPRHHSLAFLPMPTSSGIVHLMVEVEQADDVGLCLDRALRRKVPMSATLGRHVNDLMLSFYMKTPGGFDIEFGCEGRQVDDRDWIARESTAVSLWGHDFTVGARG”: the protein production result was “not failed”.

With “MSISSKAKEILTQFTREVWSEGNIEASDKYIAPKYTVLHDPGDPWEGRELDVAGYKERVKTLRAAFPDQCFDIQGLFADGDAVVMTWLWTATHKEDIPGFPSTGKQIKMSGATVYYFDGNRLTGHWQITDRLGVYQQLRQAAAGA”, the protein production entry is reported as “not failed”.

Take “MSISWSMSRNMFKLAHISDVHLGPLPRLSIQELFSKRITGFVNWHRNRRKHLFASTLDLLLDDIRTHRADHLAVTGDLVNLASGIEIRAAAAWLRALGDPADTSVVPGNHDAYVPGAYEKSMRAWYDYVRGDLAPPQWQEDRRIFPYLRVRDKVAIVGCSTAVATPPFAASGFFSARQARDTVNMLRAAGEAGLFRVVMIHHPPIRGATAFHKRMIGIRRFAAVISTGGAELVLHGHTHLNTLHWLRGQVQPVPVVGIASASQGPGSIKPPAAYNLFSIDGAPGAWELTGERFSLNRTGDAMMPESVDIFAPLEHHHHHH”: the protein production result was “failed”.

In the case of “MSITQRKNGTYEVSISWYDSLGKRRTKSKRGFKTKPEAVLGEAKLRLEYEEVSVREKVDQQDTFAEYFKNWYIFYKKPKVSKVTLNRYQYTYNVINEYFGNKLLKDITRANYQKFIVKYGQNHSPNTMKMINNCIKACVKNAVYDEEIKKDFTYNIELISNRDNVVQVEYLNVAEIKALLNSTISKLNPRYTSNYMIVTAILTGARLSEIAGLTWNDINFNFNTININKSYDYFAKSFKPTKNKSSNRIIKINNTLCDVLKELRTNNTDLVFKNKRGLIPTSNAVNKALRARLEELNINRRNFHFHSLRHSHVAFLLSQGIDIYPIAQRLGHSDITTTTRTYAYLIEEYKDKNDAIIIAGLDKLSAEKAPTKVPAKSDI”, the protein production result is “failed”.

As to “MSIVIMFKYVSDVSNIYHNIITSFIENKNIAIDATLGNGHDCDFLSELFKKVYAFDIQEEAVNSYKSKNKENVEVILDSHENFETYIKEENVDCIVYNLGYLPGNNKEVTTVAHSTLKSIEIGLDLLGDNGLMIIALYSGHEEGKKEKDAVLQFTSKLPKNKYGVLHTEFTNRAKSAPSLVVIEKKFK”, the protein production entry is “failed”.

In the case of “MSKATTPGDQPKVSEMDFYQLLGVEKMASEAEIKSAYRKLALKYHPDRNPNDAHAQEEFKKVSIAYSVLSDPNKRRQYDVSGPSENQLDFEGFDVSEMGGVGRVFGALFSKLGVPIPTQIVPKVLAQARHICMGQECDVQARQLPPGETVTSSVSKQHAHFYEINIQEEHRKNGVAIICKSSSSKFKLVLFDKEGGVRMIQESGKRGKAGTQADMFFVPYNVANIQEFNAMKYHLEDKETPLAFHYLDSFEMQTATLLETRKHYIAVYGDNWISDVKYSITFLPVEPSAVEQLNEIQDTEKSISIIKKEMLDFQREFTEAKRKYDEAVAKLKVQDDTILKALAHREELYNEVLQKSQEPYNKKVSPSKSSGGLLGWFK”, the protein production result is given as “not failed”.

Consider “MSKDAQQISALRRFSVSIISVALLVISGTVGYMYLENMSLLDALYMTVITVATVGFSEVRPLDDVGKIFTMVLIVGGTGIFFFTLTSVAVFFVSGEWKEHWEQQRNERMLRKLNDHFIICGYGRLGGSVAEELRAKAVPFVVIDNMIDNVLRARDEGFLAIKGNAADEEVLADAGLHRAKGLIAAAGNDAENVFIVLTARNLKPNLYIVARADCDGSESKLRRAGAEKVVMLYRSAGKRMASLLTEPELEEYLDELSNANNLNLRIAQYLVGDNSPLVGKSFQEVDLYNNHRINVVGYKLPDGELHTTPRPAEIIQKNGTIIVIGKSDDLEMLCKLAQGETQR”, for which the protein production entry was “failed”.

Consider “MSKDEIKKPVVLIYCDTIEGTNIYLKKICEGLEEEGVPFQIQQVEKVEDSVEVLAQNASRNSNLGIGIGVLKNGDCALLQRRLPPNLPIQTLRGEKYDPNLYRNIGINAARLAKNLPLVFA”, for which the protein production entry is “not failed”.

Take “MSKDSESNLAQRQSQPKAHADLRINSHWIIPIENTTDHNLVSNILIDHCLLIKDGIILAIEPQSSCQIPATETLDLGQQVLMPGWVNAHGHAAMSLFRGLADDLPLMTWLQEHVWPAEAQHVDEHFVKQGTELAIAEMIQSGTTTFADMYFYPQQSGEAALAAGIRAVCFAPVLDFPTNYAQNADEYIRKAIECNDRFNNHPMNEQGLVQIGFGPHAPYTVSDEPLKEITMLSDQLDMPVQIHLHETDFEVSESLETFNKRPTQRLADIGFLNERVSCVHMTQVDDGDIKILQKTGASIIHCPESNLKLASGFCPIAKLSAANIPLAIGTDGAASNNDLDMFSETKTAALLAKGVSQDASAIPAIEALTMATLGGARALGIDDITGSLKPGKAADIQAIDLNTLSSQPVFDPVSHMVYCTKSTQVSHVWVNGRCLLKNGELTTLNEETLINHAKAWASAIRTPIK”: the protein production entry is “not failed”.

Turning to “MSKFYSEQFKRDAVALYENNENLSLAAAAAELRVNRASLHQWKKELGTGKRTRMIEAKAQAEAASDAERIRALEKENAKLREERDILRKAAKYFAEETSWLEHHHHHH”, the protein production entry is reported as “failed”.

Turning to “MSKGKKIFAIIFGIILVLFLAVVGMGAKLYWDVSKSMDKTYETVERSKKSQVNLNNKEPFSVLLLGIDTGDDGRVEQGRSDTTIVATVNPRDKQTTLVSLARDTYVDIPGQGKQDKLNHAYAFGGASLAMDTVENYLNIPINHYVSINMAGLKELVNAVGGIEVNNNLTFSQDGYDFTIGKISLDGEQALSYSRMRYEDPNGDYGRQERQRKVIEGIVQKVLSLNSVSNYQEILTAVSDNMKTDLSFDDMKKIALDYRSAFGKVKQDQLQGTGFMQDGVSYQRVDEQELTRVQQELKNQLNTK”, the protein production entry was “failed”.

Regarding “MSKHVLRLALVGNPNSGKTALFNRLTGSRQKVANYPGVTVERKEGYFRASSGREFVILDLPGAYSFQPASFDEAITRDFCRGFYPGEAPPDVLVCVVDATNLRLHLRFVLELIELGRPVVVALNMVDAAQRRGIRIDRVILEQLLGVPVVETVAVRRHGARALLEQLDTGVIPLPAPVPALAAGDQYHAQVRHILDAAVKMPSRTSRVDDALDRWLLHPVFGLVVLTVVMFLIFQAVYAWAAPLVSLIEGSTTVLGHWVGNRLPDGPLRSLVVDGIITGIGGVLMFLPQILILFAFILALEESGYLPRAAFLLDRLMVLAGLSGRSFIPLLSSFACAVPGIMSTRSIQDPRDRLVTILVAPLMTCSARLPVYTLLIGAFVPRKSLWGPINQQGLVLFGLYMAGIFSALVVSWTVKKWRRGTSEHPLLLELPSYRLPHSRDLLLGLWERAVIFLKRVGGIILALTILLWFLLAFPEPPSGAIGPAIQYSFAGRIGHVIAVFFAPLGFSWQICIALIPGLAAREVAVSSLATVYALSASNEEMAVRALSPLIQDGWSLATALSLLVWYIYAPMCISTLVTIKRETNSWKHMAMTAGYLFALAYLAALATYQVALLLGAG”, the protein production entry is listed as “failed”.

For the sequence “MSKIGRNDPCPCGSGKKYKQCCFHRATSAAATPDAEMLWRAGNAHLAGGALDMALSCYREAVRLRPGFAQAHYNLGVVFQQKGLLDEAAASFRSAISFNRDYAKAYNNLGYILATQGRLDESADCFNRAIAIEPGFAAAYHNLGTTLRHQGRLDETLAAFRTAHAINPHDPVFHSDLLMMLHYSDMDDETLFREHVRWGEQHAPAAASVPTHQCDRDPGRKLRIGYVSGDFGKHPVGYFLLPFLENHDRSQFEICCYSERGQRQEDDVTARIKGHADLWRRTIGLGDAAVAEMIRADGIDILVDLAGHTAHNRLRVFALKPAPVQVTWLGYPNTTGLRAMDYRITDAVADPPGSADALHTEQLIRLEQGFLCYTPPAGAPPVGEAPCLAGAGVTFGSFNNLAKVSPQVIDAWSAILGRVPGSRLMLKFKGFADETCRRRVSDAFGARGVSPDRLELVSFVENFNDHLALYNRLDLALDTFPYNGTATTCDALWMGVPVLTCCGTRHVARVGASILTSLGLPELITHSPEEYISAAAALAADPARLAALRRDMRPRLAASPLCDPTGFARRMETALRDIWRRWCSA”, the protein production result was “failed”.

Turning to “MSKISDNHDHSALQFMKKKVRENGSRDIRQIYVPAYTQVPLPNNMKKQIFFWLGALIFFILFMLVFGSILLPFVAGIVLAYFLNPIVQLLEKFRIRRVFGTILITLFIVVVFVAALIILIPIISWQIQQFMNDGLPVYINRIQTFFVEHDFDWVRRYFGSDPNELQSNIKGLLGQSSDFITSLLNSLLKSGKSLVNIVSLFVVAPVVAFYMLLDWPRMVTAVDSLIPRDHLETVRSIFHEMDRAIAGFVRGQGTACLILGGYYAIGLTITELNFGLLIGMFIGLISFVPYIGTMSGFLLSVGVAWVQFYPNNWGWIIVVMVIFLIGQFIEGYILQPKLVGSSVGLHPVWLMFALFAFSSLFGFTGMLIAVPAAAAVGVLVRFALHTYLNSQMYSRSGNSERLE”, the protein production entry is on record as “failed”.

Regarding “MSKKINELLRYCEENYIERGSLELALRCAVSICKANPDAPQAYAHVAAYRILLTAANYRTVTGEPDWYAVLGINKRGSSKSVVNAIDRRCEEIIEVLDGETGVSKAVSRVYDLVRLGVSELMDEDRRRAYDLRSGFSIIN”, the protein production result was “failed”.

For “MSKKKSAAMTLKDFHGGSIPSDLPLPSAPGVTPKVIPDRPVFDRAPWGNSIGRPDQRARPSSSHAIRNLDDKSLFLPHNVNIGRNFSEDERKPLDGHSAPRRVVSDDVFRFANNRLEMKADSVLAGRHSGWAAGPLTHSGTGNIENSVSGNHSNIWNGRKEVSVANNEPGQSPWTKQPAVSNLVHTSALDQVSSGGWQSKLLVPSQMGFDVVKHSEIDTRVYKTNSPVISQGVEPHGTHVERALIAEDGIQRGKKLSREYEKIPGPTYVDAKEAKIVANTNDKPHPKYSDVKPAGHLVQPTAPSEVVERPKLNLLPRTKPLESVEKPVNDEKLENSASVLIQRENATQKSFNNSKSGLSTDEIPNQPAERPKLNLKPVAQLLEQPEVKTEKDRSAVFGGARPRELVLKERGIDEPEHHKLDQPTDRMVLKPIERVPEHASQRPVSSPRDMRTRKFDQKDGRNVSDIARSETQRRNWRENENKSARQQQQTQEKTRHPSPETWRKPVPQKLDSPNGTGIRHGKAASALELAQAYSPFSDPKSGIGSSNSFNKSRNNQTQQQPFSRLVGSTTTGRQINGY”, the protein production result is on record as “failed”.
